{
  "source": "patent US20210170043A1",
  "about": "“DC-SIGN ANTIBODY CONJUGATES COMPRISING STING AGONISTS” (NOVARTIS AG, priority 2018, published 2021)",
  "molecules": {"B1": {"name": "892D15: anti-DC-SIGN antibody; All antibodies except 892D15 and 942K11 bind human and cynomolgus monkey DC-SIGN similarly; headings print 952D15 (antibody)", "heavy": "QVTLRESGPALVKPTQTLTLTCTFSGFSPSTSGMSVSWIRQPPGKALEWLALIDWDDDKYFSTSLKTRLTISKDTSKNQVVLTMTNMDPVDTATYYCARAHSGSYFDYWGQGTLVTVSSASTKGPSVFPLAPSSKSTSGGTAALGCLVKDYFPCPVTVSWNSGALTSGVHTFPAVLQSSGLYSLSSVVTVPSSSLGTQTYICNVNHKPSNTKVDKRVEPKSCDKTHTCPPCPAPELLGGPSVFLFPPKPKDTLMISRTPEVTCVVVAVSHEDPEVKFNWYVDGVEVHNAKTKPREEQYNSTYRVVSVLTVLHQDWLNGKEYKCKVSNKALAAPIEKTISKAKGQPREPQVYTLPPSREEMTKNQVSLTCLVKGFYPCDIAVEWESNGQPENNYKTTPPVLDSDGSFFLYSKLTVDKSRWQQGNVFSCSVMHEALHNHYTQKSLSLSPGK", "light": "DIQMTQSPSTLSASVGDRVTITCRASQSISNWLAWYQQKPGKAPKLLIYKASSLESGVPSRFSGSGSGTEFTLTISSLQPDDFATYYCQQFNSYWTFGQGTKVEIKRTVAAPSVFIFPPSDEQLKSGTASVVCLLNNFYPREAKVQWKVDNALQSGNSQESVTEQDSKDSTYSLSSTLTLSKADYEKHKVYACEVTHQGLSSPVTKSFNRGEC"}},
  "key": {"human DC-SIGN [1]": {"biological_target": "T1, human DC-SIGN (Homo sapiens, UniProt Q9NNX6)", "T1 construct": "expressed in transfected cells", "T1 sequence (Q9NNX6 1-404)": "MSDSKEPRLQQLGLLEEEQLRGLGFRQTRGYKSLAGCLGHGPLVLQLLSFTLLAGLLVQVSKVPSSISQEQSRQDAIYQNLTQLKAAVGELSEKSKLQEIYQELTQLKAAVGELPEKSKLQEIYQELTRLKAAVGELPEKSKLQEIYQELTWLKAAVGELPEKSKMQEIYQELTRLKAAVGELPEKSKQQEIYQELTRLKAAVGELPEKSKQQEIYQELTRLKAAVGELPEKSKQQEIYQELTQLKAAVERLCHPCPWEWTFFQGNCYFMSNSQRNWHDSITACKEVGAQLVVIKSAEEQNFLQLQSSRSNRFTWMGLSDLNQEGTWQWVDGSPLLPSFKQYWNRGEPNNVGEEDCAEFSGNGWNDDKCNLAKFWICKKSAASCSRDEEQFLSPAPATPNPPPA", "assay": "FACS binding to CHO cells stably expressing human DC-SIGN", "conditions": "FACS MFI, average", "description": "(§1) The affinity of various antibodies and ADCs to DC-SIGN and its species orthologues was determined using FACS. Purified IgGs were titrated to determine EC50 values for binding to cell surface expressed DC-SIGN.\n(§2) For this purpose, human DC-SIGN expressing or cynomolgus monkey DC-SIGN expressing stable CHO cell lines or K562 expressing DC-SIGN or K562 expressing L-SIGN cell lines were checked for density and viability using VICELL (Beckman Coulter), and washed once with 4° C. PBS. Cells were stained with DAPI (0.5 ug/mL) diluted in PBS for 30 min on ice. Cells were diluted into 4° C. FACS buffer (PBS, 10 mM EDTA, 2% FBS). 125 μl of cells were seeded (10,000 cells/well) into 96-well v-bottom plates (Nunc cat#442587) and centrifuged for 4 min at 1500 rpm at 4° C. Supernatant was removed. Cells were incubated with a serial dilution of each anti-DC-SIGN antibody in FACS buffer at concentrations ranging across several logs with a top concentration no higher than 50 μg/mL for 60 minutes at 4° C. Following incubation, cells were spun down (1500 rpm, 4 min, 4° C.) and washed two times with FACS buffer. A fluorophore-conjugated anti-hFc gamma-AF-647 (Southern Biotechnology) detection antibody was added at 1:400 and samples were incubated for 1 h on ice in the dark. Following incubation, FACS buffer was added, and the cells were spun down (1500 rpm, 4 min, 4° C.) and washed two times with FACS buffer. After the final wash, cells were resuspended in Fixative Buffer (Biolegend, 420801) and 90 μl of FACS buffer followed by readout on the flow cytometry machine (BD LSRFortessa Cell Analyzer; Cat #647177). Geometric Mean fluorescence intensity (MFI) of live, single cells was calculated in Flowjo 10.4.2 and exported into Graphpad Prism7 for EC50 determination."}, "[2]": {"system": "cynomolgus monkey DC-SIGN", "sequence (as listed by the source)": "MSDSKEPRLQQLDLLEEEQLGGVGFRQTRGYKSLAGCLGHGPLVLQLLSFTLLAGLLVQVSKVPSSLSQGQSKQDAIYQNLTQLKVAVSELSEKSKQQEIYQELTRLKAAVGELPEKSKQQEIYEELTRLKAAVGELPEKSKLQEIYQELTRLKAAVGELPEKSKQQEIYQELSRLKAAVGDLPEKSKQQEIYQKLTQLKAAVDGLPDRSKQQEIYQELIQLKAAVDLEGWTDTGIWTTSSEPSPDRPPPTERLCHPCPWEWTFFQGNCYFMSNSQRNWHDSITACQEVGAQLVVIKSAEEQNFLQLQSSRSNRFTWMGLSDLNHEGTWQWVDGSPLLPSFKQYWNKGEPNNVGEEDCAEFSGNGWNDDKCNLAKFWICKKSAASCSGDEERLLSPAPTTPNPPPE", "assay": "FACS binding to CHO cells stably expressing cynomolgus monkey DC-SIGN", "conditions": "FACS MFI, average", "description": "as §1, §2\nIn a similar experiment the antibodies were tested for cross-reactivity using engineered isogenic matched cell line."}, "[3]": {"biological_target": "T2, DC-SIGN Carbohydrate Recognition Domain (CRD) (Homo sapiens, UniProt Q9NNX6)", "T2 construct": "The DC-SIGN CRD was captured via the His tag; AviTag (C)", "T2 sequence (Q9NNX6 with tags, fused parts or gaps)": "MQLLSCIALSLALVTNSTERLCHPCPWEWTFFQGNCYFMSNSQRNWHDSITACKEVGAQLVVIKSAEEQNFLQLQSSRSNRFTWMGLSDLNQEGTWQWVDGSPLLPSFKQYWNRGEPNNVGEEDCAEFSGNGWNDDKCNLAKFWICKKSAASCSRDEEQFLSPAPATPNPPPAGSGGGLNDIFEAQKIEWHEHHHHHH", "assay": "Biacore affinity to DC-SIGN Carbohydrate Recognition Domain", "assay_type": "binding", "conditions": "25° C.", "description": "The affinity of various antibodies to DC-SIGN Carbohydrate Recognition Domain (CRD) was determined using Biacore. Purified IgGs for the parental antibodies were titrated to determine Kd values for binding to purified antigen domain by two methods described below.\nIn method 1 DC-SIGN was used as the ligand (surface attached) and the antibody the analyte (injected at different concentrations). The DC-SIGN CRD was captured via the His tag on a CM5 chip that was prepared by immobilizing 12000RU NeutrAvidin followed by capturing ˜550RU of Tris-NTA biotin. Fresh DC-SIGN was used for each dose. Each cycle consisted of charging the surface with a 120s pulse of 5 mM NiCl2, capturing the same amount of DC-SIGN, injecting the antibody at the desired concentration, and stripping the Ni^2+ with pulses of 350 mM EDTA and 500 mM imidazole to remove all DC-SIGN. Antibodies were injected at concentrations between 250 and 31 nM for 180s and allowed to dissociate for 600s. The reverse orientation was used in method 2-antibody the ligand and DC-SIGN the analyte. A CM5 chip was first prepared with mouse anti-human IgG Fc and used to capture the antibodies. […] Kinetic parameters were calculated using the 8K analysis software."}, "human DC-SIGN [4]": {"biological_target": "T1, human DC-SIGN", "assay": "FACS binding to K562 cells expressing human DC-SIGN", "conditions": "FACS MFI", "description": "as §1, §2"}},
  "note": "Like-named read-outs stand apart in the source and are kept apart here.",
  "data": [
    {"molecule": "B1", "values": [
      {"measurement": "human DC-SIGN CHO EC50 (ug/mL) ave.", "setting": "human DC-SIGN [1]", "result": 0.15, "unit": "µg/mL"},
      {"measurement": "cyno DC-SIGN CHO EC50 (ug/mL) ave.", "setting": "[2]", "result": 15.69, "unit": "µg/mL"},
      {"measurement": "Kd", "setting": "[3]; method 1: DC-SIGN CRD captured on chip, antibody as analyte, read-out: high density DC-SIGN CRD on chip", "result": 0.111, "unit": "µM"},
      {"measurement": "Kd", "setting": "[3]; method 2: antibody captured on chip, DC-SIGN CRD as analyte, read-out: Ab on chip", "result": 47.6, "unit": "µM"},
      {"measurement": "human DC-SIGN K562 EC50", "setting": "human DC-SIGN [4]", "result": ">10", "unit": "µg/mL"}
    ]}
  ]
}
